Substitutions are numbered along the chain they refer to.
Assays:
[1] = molecular target: MutLLN40 N131C (UniProt P23367 1-349, N131C); experiment: SPR; 1 mM ATP, 150 mM KCl; SPR: 25 mM Hepes pH 7.5, 150 mM KCl, 5 mM MgCl2, 1 mM DTT, 0.05% Tween-20, 1 mM ATP (+20% glycerol for MutL-MutS assay); FP: same but 50 mM KCl, no ATP (+10% glycerol for full-length MutL); stopped-flow: 150 mM KCl, 10 uM ADP +/- 1 mM ATP, 15 C; FRET: 25 mM Hepes pH 7.2, 150 mM KCl, 5 mM MgCl2; settings: protein: recombinant; tags: His; label: biotin at one end (immobilized), fluorescein at the other; blunt, one G:T mismatch
[2] = molecular target: T1, MutS WT (UniProt P23909 1-853); experiment: SPR; 1 mM ATP, end-blocked with anti-fluorescein Fab; sliding clamp; SPR: 25 mM Hepes pH 7.5, 150 mM KCl, 5 mM MgCl2, 1 mM DTT, 0.05% Tween-20, 1 mM ATP (+20% glycerol for MutL-MutS assay); FP: same but 50 mM KCl, no ATP (+10% glycerol for full-length MutL); stopped-flow: 150 mM KCl, 10 uM ADP +/- 1 mM ATP, 15 C; FRET: 25 mM Hepes pH 7.2, 150 mM KCl, 5 mM MgCl2; settings: protein: recombinant; chain copies: 2; label: biotin at one end (immobilized), fluorescein at the other; blunt, one G:T mismatch
T1 sequence: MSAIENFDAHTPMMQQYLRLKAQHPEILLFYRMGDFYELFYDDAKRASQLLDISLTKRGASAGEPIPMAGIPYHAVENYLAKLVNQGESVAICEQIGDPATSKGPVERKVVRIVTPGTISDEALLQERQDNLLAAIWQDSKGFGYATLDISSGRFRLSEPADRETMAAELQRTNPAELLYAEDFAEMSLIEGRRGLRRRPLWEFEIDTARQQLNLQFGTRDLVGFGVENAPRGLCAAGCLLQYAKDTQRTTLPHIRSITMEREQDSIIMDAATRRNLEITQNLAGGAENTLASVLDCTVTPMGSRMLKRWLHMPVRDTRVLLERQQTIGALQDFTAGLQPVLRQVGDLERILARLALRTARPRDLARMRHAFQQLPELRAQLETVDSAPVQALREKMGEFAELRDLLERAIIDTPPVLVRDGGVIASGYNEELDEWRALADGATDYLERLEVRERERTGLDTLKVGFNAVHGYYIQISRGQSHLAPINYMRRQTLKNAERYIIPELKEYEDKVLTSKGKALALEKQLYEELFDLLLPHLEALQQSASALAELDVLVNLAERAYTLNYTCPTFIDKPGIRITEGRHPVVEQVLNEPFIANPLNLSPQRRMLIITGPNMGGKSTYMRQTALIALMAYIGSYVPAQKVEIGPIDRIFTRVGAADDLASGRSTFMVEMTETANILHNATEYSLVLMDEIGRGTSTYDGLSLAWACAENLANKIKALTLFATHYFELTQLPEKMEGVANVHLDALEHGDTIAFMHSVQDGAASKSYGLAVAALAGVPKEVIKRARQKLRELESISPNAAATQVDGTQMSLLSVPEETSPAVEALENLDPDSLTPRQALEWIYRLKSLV

[3] = molecular target: T2, MutSΔC800 D246C (UniProt P23909 1-800, D246C); experiment: SPR; 1 mM ATP, 150 mM KCl; fast off-rate; SPR: 25 mM Hepes pH 7.5, 150 mM KCl, 5 mM MgCl2, 1 mM DTT, 0.05% Tween-20, 1 mM ATP (+20% glycerol for MutL-MutS assay); FP: same but 50 mM KCl, no ATP (+10% glycerol for full-length MutL); stopped-flow: 150 mM KCl, 10 uM ADP +/- 1 mM ATP, 15 C; FRET: 25 mM Hepes pH 7.2, 150 mM KCl, 5 mM MgCl2; settings: protein: recombinant; chain copies: 2; label: biotin at one end (immobilized), fluorescein at the other; blunt, one G:T mismatch
T2 sequence: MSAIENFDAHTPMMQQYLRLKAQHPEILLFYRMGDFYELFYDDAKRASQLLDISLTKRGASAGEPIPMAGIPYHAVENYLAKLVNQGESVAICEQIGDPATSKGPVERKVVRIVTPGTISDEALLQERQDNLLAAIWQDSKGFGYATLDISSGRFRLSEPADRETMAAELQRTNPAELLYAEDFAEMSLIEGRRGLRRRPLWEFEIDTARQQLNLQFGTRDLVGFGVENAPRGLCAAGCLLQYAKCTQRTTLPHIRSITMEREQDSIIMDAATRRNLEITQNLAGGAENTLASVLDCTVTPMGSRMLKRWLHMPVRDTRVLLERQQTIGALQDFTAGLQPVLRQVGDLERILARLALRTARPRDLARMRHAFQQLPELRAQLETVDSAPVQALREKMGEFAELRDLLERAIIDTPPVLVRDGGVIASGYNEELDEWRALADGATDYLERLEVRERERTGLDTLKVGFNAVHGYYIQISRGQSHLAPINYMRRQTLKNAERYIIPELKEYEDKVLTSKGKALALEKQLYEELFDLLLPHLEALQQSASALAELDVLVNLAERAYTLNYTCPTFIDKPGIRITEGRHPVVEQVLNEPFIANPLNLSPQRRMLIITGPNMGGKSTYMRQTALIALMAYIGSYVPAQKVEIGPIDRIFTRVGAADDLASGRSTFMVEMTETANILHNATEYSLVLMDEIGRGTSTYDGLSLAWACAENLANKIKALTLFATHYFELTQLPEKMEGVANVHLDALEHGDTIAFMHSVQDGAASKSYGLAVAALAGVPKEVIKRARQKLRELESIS

[4] = molecular target: MutS WT;MutL WT (Escherichia coli?;Escherichia coli?, UniProt P23909;P23367 1-853;1-615, |); experiment: SPR; 1 mM ATP, end-blocked; MutL binds preformed MutS clamp; SPR: 25 mM Hepes pH 7.5, 150 mM KCl, 5 mM MgCl2, 1 mM DTT, 0.05% Tween-20, 1 mM ATP (+20% glycerol for MutL-MutS assay); FP: same but 50 mM KCl, no ATP (+10% glycerol for full-length MutL); stopped-flow: 150 mM KCl, 10 uM ADP +/- 1 mM ATP, 15 C; FRET: 25 mM Hepes pH 7.2, 150 mM KCl, 5 mM MgCl2; settings: protein: recombinant;recombinant; tags: ;His6; chain copies: 2;2; label: biotin at one end (immobilized), fluorescein at the other; blunt, one G:T mismatch
[5] = molecular target: T2, MutSΔC800 D246C; experiment: stopped-flow FRET and FP; 10 uM ADP, no ATP; binding with kinking; SPR: 25 mM Hepes pH 7.5, 150 mM KCl, 5 mM MgCl2, 1 mM DTT, 0.05% Tween-20, 1 mM ATP (+20% glycerol for MutL-MutS assay); FP: same but 50 mM KCl, no ATP (+10% glycerol for full-length MutL); stopped-flow: 150 mM KCl, 10 uM ADP +/- 1 mM ATP, 15 C; FRET: 25 mM Hepes pH 7.2, 150 mM KCl, 5 mM MgCl2; settings: protein: recombinant; chain copies: 2; label: FRET: Alexa Fluor 594 on top T11 and Alexa Fluor 488 on bottom T10; FP: 5' TAMRA on top; blunt, one G:T mismatch
[6] = molecular target: MutSΔC800 D246C;MutL WT (Escherichia coli?;Escherichia coli?, UniProt P23909;P23367 1-800;1-615, D246C|); experiment: stopped-flow FRET and FP; 400 nM MutL mixed, 1 mM ATP; more binding at equilibrium than MutSΔC800 alone; SPR: 25 mM Hepes pH 7.5, 150 mM KCl, 5 mM MgCl2, 1 mM DTT, 0.05% Tween-20, 1 mM ATP (+20% glycerol for MutL-MutS assay); FP: same but 50 mM KCl, no ATP (+10% glycerol for full-length MutL); stopped-flow: 150 mM KCl, 10 uM ADP +/- 1 mM ATP, 15 C; FRET: 25 mM Hepes pH 7.2, 150 mM KCl, 5 mM MgCl2; settings: protein: recombinant;recombinant; tags: ;His6; chain copies: 2;2; label: FRET: Alexa Fluor 594 on top T11 and Alexa Fluor 488 on bottom T10; FP: 5' TAMRA on top; blunt, one G:T mismatch
[7] = molecular target: T2, MutSΔC800 D246C; experiment: SPR; 1 mM ATP; fitted maximum response 104 RU; SPR: 25 mM Hepes pH 7.5, 150 mM KCl, 5 mM MgCl2, 1 mM DTT, 0.05% Tween-20, 1 mM ATP (+20% glycerol for MutL-MutS assay); FP: same but 50 mM KCl, no ATP (+10% glycerol for full-length MutL); stopped-flow: 150 mM KCl, 10 uM ADP +/- 1 mM ATP, 15 C; FRET: 25 mM Hepes pH 7.2, 150 mM KCl, 5 mM MgCl2; settings: protein: recombinant; chain copies: 2; label: immobilized for SPR; blunt, one G:T mismatch
[8] = molecular target: MutLLN40 N131C R162E/R266E/R316E (UniProt P23367 1-349, N131C;R162E;R266E;R316E); experiment: fluorescence polarization; 50 mM KCl; binding completely abolished; SPR: 25 mM Hepes pH 7.5, 150 mM KCl, 5 mM MgCl2, 1 mM DTT, 0.05% Tween-20, 1 mM ATP (+20% glycerol for MutL-MutS assay); FP: same but 50 mM KCl, no ATP (+10% glycerol for full-length MutL); stopped-flow: 150 mM KCl, 10 uM ADP +/- 1 mM ATP, 15 C; FRET: 25 mM Hepes pH 7.2, 150 mM KCl, 5 mM MgCl2; settings: protein: recombinant; tags: His; label: 5' TAMRA; blunt

B1: 100-bp G:T mismatch DNA (dsDNA)
DNA 1: AAACAGGCTTAGGCTGGAGCTGAAGCTTAGCTTAGGATCATCGAGGATCGAGCTCGGTGCAATTCAGCGGTACCCAATTCGCCCTATAGGCATCCAGGTT
DNA 2: AACCTGGATGCCTATAGGGCGAATTGGGTACCGCTGAATTGCACCGAGCTTGATCCTCGATGATCCTAAGCTAAGCTTCAGCTCCAGCCTAAGCCTGTTT
- binding result [1]: no binding
- binding result [2]: binds
- binding result [3]: binds
- binding result [4]: binds

B2: 45-bp G:T mismatch DNA (dsDNA)
DNA 1: GTCATCCTCGTCTCAAGCTGCCAGGCACCAGTGTCAGCGTCCTAT
DNA 2: ATAGGACGCTGACACTGGTGCTTGGCAGCTTGAGACGAGGATGAC
- binding result [5]: binds
- binding result [6]: binds

B3: 41-bp G:T mismatch DNA (dsDNA)
DNA 1: ATAGGACGCTGACACTGGTGCTTGGCAGCTTCTAATTCGAT
DNA 2: ATCGAATTAGAAGCTGCCAGGCACCAGTGTCAGCGTCCTAT
- binding result [7]: binds

B4: 41-bp homoduplex, TAMRA (dsDNA)
DNA 1: B3 DNA 1
DNA 2: B3 DNA 2 with G20A
- binding result [8]: no binding

Source: PMC4521584, “MutS/MutL crystal structure reveals that the MutS sliding clamp loads MutL onto DNA”
